# Laboratory results taken from the DeepSol protein solubility set.
# Test: soluble on expression in E. coli; label from the status in PepcDB or PDB records
row,Sequence,soluble on expression in E. coli
1,RRVADEIVISHPELADEVDTVCNKIQAGKPMPESLRELVVRTGLEELMGLVSMLSHASRIGGSLVNSLREYTEDYRDKRQQAAEEIAAKIPVK,not soluble
2,MSEGSNVLVSIILVNYNGADILPDCLNSIDKFISKDNCEILLVDNASQDNSYELVAQDFPDVKIVRLPKNYGFGAGNNAGAKIAKGKFLLLLNTDTILTTNILPHLIDLMRENPDVGIIGTKLVFPDETFQISFAYTIGIKGEYKSRKLHEYAEDKSKLNSLEQEFNTIKEVDIVVGAALFIRADLFHSVGGFDEKFFIYFEDADLCRRVQNQGYKILYTPQVSLIHIRGHSMKKNANATVLEHHHHHH,not soluble
3,MNDFSLELPVRTNKPRETGQSILIDNGYPLQFFKDAIAGASDYIDFVKFGWGTSLLTKDLEEKISTLKEHDITFFFGGTLFEKYVSQKKVNEFHRYCTYFGCEYIEISNGTLPMTNKEKAAYIADFSDEFLVLSEVGSKDAELASRQSSEEWLEYIVEDMEAGAEKVITEARESGTGGICSSSGDVRFQIVDDIISSDIDINRLIFEAPNKTLQQGFIQKIGPNVNLANIPFHDAIALETLRLGLRSDTFFL,soluble
4,MAIIIGADKAGQELKEVIKDYLKEGKYEVVDVSENEVRDFVDTTLAVVKEVNASDDNLGIVIDAYGVGSFMVATKIKGMVAAEVSDERSAYMTRGHNNARIITLGSEISAPGIAKNIIKGFVEGKYDGGRHQVRVDMLNKMC,soluble
5,SLTKKVTIGSYIKFSDSCKRDGLANYSEQGRFWDVHRSQADDVQKIYNQELEFQRLAQRIGNCSGILRFSQIDDDETGKKKLKLRLQEAHFCRVRHCPVCQWRRSLMWQARFYSALPAIIKEYPKARFLFLTLTVKNCHIEDLSDTLRIMNSGWQRLKDRKEFKSVLGWIRSTEVTKGKDGSAHPHFHILLMVPPSWFTHSYVKKSRWAELWAYCARLDYSPVVDIRTVKNCVPEASSGLTEGLKAAVAETLKYSVKPSDMIEGNNWFLQMTKQVHRKRFIASGGVLKNILRESQETNEDLIFADNLNEISDRSRIAFNWRQSEKCYRRFEQGD,soluble
6,MSTQPDTSLRATKRLKTRISVEDAATALVLRDGFDNVTVEDICAAAEISKRTFFNYFDSKENAVFGDIQVDILPQLREEFLSHPHEDLPEAVIRLHMNLVFSGKDFDPHTRGEIIRRRKTIRHNNPERSFNYNALYHKVFINFKTLVNEYFEHFPEQRRLGGDVDVEATAVVLSSSYAIRFGFTLWADSPSASFSTLEESCLEALVHLRTINKGL,not soluble
7,MSLYKAVFSDFNGTLLTSQHTISPRTVVVIKRLTANGIPFVPISARSPLGILPYWKQLETNNVLVAFSGALILNQNLEPIYSVQIEPKDILEINTVLAEHPLLGVNYYTNNDCHARDVENKWVIYERSVTKIEIHPFDEVATRSPHKIQIIGEAEEIIEIEVLLKEKFPHLSICRSHANFLEVMHKSATKGSAVRFLEDYFGVQTNEVIAFGDNFNDLDMLEHVGLGVAMGNAPNEIKQAANVVTATNNEDGLALILEEKFPEEGHHHHHH,soluble
8,MGSDKIHHHHHHMAPASFSQITGQSVGKIGVLFLLLMVLWSANLCNSSDITPLSANRANVGQMVQAFTFDDLFKEDGPSSDLPQRVFRQTSSWRGFSQLEFAETIASPKHASKLRLRSELSNLGQLSPNVKWKLSARIDYDAIYDLSDFYSRQVRRDQRFELFLRENYLDFSIADFDVRVGRQHIVWGEMVGLFFADVVSAKDMREFVLPDFDILRIPQWAVRTEYSKNDFHADLIWIPFASLDEIGRPGADFYPFKLPVAAPVSFLKEDRSGRNVAHSNYGIRLSQLTNGWDVSAFYYHSLDATPTFHRISQPWEPLLFQARHGEIDQAGGTVTKDLGSAVLKGEFVYTHGRRFNVTRPTAADGLVRQDTIDYALGLDFTLPSDIRLNLQFFQRAYLNYDRDIFQDRLENGGSIFLQGDLWRDFQGQILLIHSFNRNEWMLRPRLTWNFARNWKLAAGADIFNGPPTGLFGRFDSSDRVYTELRFSF,not soluble
9,MSLYKILLADDERIILDGMAGIIEWESLGASLIGKAQNGHEAYEKIVHKQPHIVITDVKMPGMDGLELIKKVSAVSPSVQFIVLSGFGEFEYAKEAMKYGVKHYLLKPCNEQQIISSLEEIIAELKRQDVHKKKTAHLKHELDHIRSFAADQYLEGLIAGVAQLSPPPSLAGKKIRLLILKGEQSIDAAAREALGSALTAVCSSGEWTVLAVEENAAEKVAEVFADRKMAISQAGELRHAGQLFRDTAEASGDLHGSAVISKMIRLIADELGNPNLSLKWAAKDMLFMNPDYLGKLFKQETGEKFSQYVTRVRLEHAMKQMKIRRDVSVSEIAEEIGFGDNPKYFSLVFKKYTGLTPSEFRRKQGGASAGEGHHHHHH,soluble
10,SSALPRTLGELQLYRVLQRANLLSYYETFIQQGGDDVQQLCEAGEEEFLEIMALVGMATKPLHVRRLQKALREWATNPGLFSQPVPAVPVSSIPLFKISETAG,soluble
11,MDFLARATAIVGNTMVLMRRFGSPGTQAIGQSPAIPEAQKQGIMTLKMPAAKGWAPGHLPTPAPGLKVNAFARDLEHPRWIEVLPSGDVLVAEARQLPTPPKTLLDRAAQATMRRIRALGDSPNRITLLRDPDGRGEAQERETFLENQSQPFGMALVGDTFYVGNTDGIMAFPYRPGATRLEGPGRRLTTFKPGGHWTRSLIVSPDGRRIYAGVGSLSNIGDDGMEAEEGRAAIWELDLASGQARIYASGLRNPVGLAWEPTTRVLWTVVNERDGLGDETPPDYLTSVEEDGFYGWPYCYWNRIVDDRVPQDPAMVARAITPDYALGGHTASLGLCWVPAGTLPGFGDGMAIGQHGSWNRSKLSGYRLIFVPFANGRPSGPPRDILTGFLSDDEKLAYGRPVGVAVGPDRRSLLLADDVGDVIWRVTGALEHHHHHH,not soluble
12,MGSDKIHHHHHHMSTDCLQELENALGRAALVRDEDRALYDVDWRGHLHGRSLAVVCPSRVEDVGETIRIARRHQISIVPQGGNTGLAGGATPDSTGRQLVLCTRRLNRIRGVDLLGNFITVDAGCILQNVQDAAQSHDRLFPLSLAAQGSCTIGGNLATNAGGNAVLRYGNMRELCVGIEAVDAQGRLIGDLKCVRKNNTGYSLRDLLIGSEGTLGIITGAALRLFPRPFAYATALVKCADIDHALQVLGILRAHCADFLSGVEWMSNGSLSNVSKQFLDTRIPPGFDESCLCLVELSGSTPPGLLDDILASALDQAITSGFAADAALASNLAERDAFWALRERLPLAEARCRSLKHDVSLPAGNMSEFVAHLEGYLSSMTLRCAWAGFGHLGDGNLHANVLIPDTMPDALCDCIDEFVYSEVLRLEGSISAEHGIGSRKNDLLHRALDVASLQAMQAVRNALDPHNLFNPGKLLFN,not soluble
13,MGSDKIHHHHHHMHSFHDAFSAPNAGNDTEAKRLPAKRRIRLKTAVLGVLLLASVAAQAEPRLTDLQYIGSHNSYHAGFAPSEATLLKQHDPAAFATLDYRHPPLTQQLDDGVRQLELDVFADAHGGRYAHPAIVEQIAKAGLPPAPASAPAGVMNKPGFKVLHVQDVDQRSTCQPLVTCLQEVRAWSQQHPGHLPIFILLETKQSPVQLSFPTVQPEPFDRKAMDALDAELRSVFRPGEYVSPDTVRGTARTLNAAVLAHGWPALRATRGKVVFLLDQRAAGASYLPGHPSLRGRVCFTNAEPGQDDAAFTERNDGPAEDITRLVQAGYLVRTRTDADLKEPARGDNRRRDAMLATGAQLLSTDFPAHEPARNGYVVRFDGDAVARCAPQLPRAHCEGVDLTH,not soluble
14,MASDLESSLTSIDWLPQLTLRATIEKLGSASQAGPPGSSRKCSPGSPTDPNATLSKDEAAVHQDGKPRYSYATLITYAINSSPAKKMTLSEIYRWICDNFPYYKNAGIGWKNSIRHNLSLNKCFRKVPRPRDDPGKGSYWTIDTCPDISRKRRHPPDDDLSQDSPEQEASKSPRGGVAGSGEASLPPEGNPQMSLQSPTSIASYSQGTGSVDGGAVAAGASGRESAEGPPPLYNTNHDFKFSYSEINFQDLSWSFRNLYKSMLEKSSSSSQHGFSSLLGDIPPSNNYYMYQQQQPPPPQQQQQQQQPPQPPPQQSQPQQQQAPAQGPSAVGGAPPLHTPSTDGCTPPGGKQAGAEGYGPPPVMAMHPPPLQHGGYHPHQHHPHSHPAQQPPPPQPQAQGQAPINNTGFAFPSDWCSNIDSLKESFKMVNRLNWSSIEQSQFSELMESLRQAEQKNWTLDQHHIANLCDSLNHFLTQTGHVPPQGGTHRPPAPARIADSCALTSGKQESAMSQVNSYGHPQAPHLYPGPSPMYPIPTQDSAGYNRPAHHMVPRPSVPPPGANEEIPDDFDWDLIT,soluble
15,SNIEALADKVRTYLEAGQIDGFVRTLRARPEAGGKVPVFVFHPAGGSTVVYEPLLGRLPADTPMYGFERVEGSIEERAQQYVPKLIEMQGDGPYVLVGWSLGGVLAYACAIGLRRLGKDVRFVGLIDAVRAGEEIPQTKEEIRKRWDRYAAFAEKTFNVTIPAIPYEQLEELDDEGQVRFVLDAVSQSGVQIPAGIIEHQRTSYLDNRAIDTAQIQPYDGHVTLYMADRYHDDAIMFEPRYAVRQPDGGWGEYVSDLEVVPIGGEHIQAIDEPIIAKVGEHMSRA,soluble
16,MGSDKIHHHHHHMKVLHLIDSGGLYGAERMLLALVAEQIQQGLEPMILSAGEQGIHQKPLEIEAEKLGLPLVVWRMTPGLNYPETRKICEWAEHWGVDLVHSHGYKFNILMSLFSRFSRKVPVVSTLHGYVHAPRFSRMWVYELLDRLAISRLDGVIMVGAAMKKELSTGLIRPRRLTTIRNGLAVDDTQRKATEPLPEALEEFFSTHEPVILGVGRLSKEKGFSHLVDSFREIKQSAPKAGLLIVGDGMLRKDLEDQVARLGLGSDVCLPGYCDNVPALMARSSALVISSSTEGLPITLLEAMAVRLPVVSTDVGEISFVLDEGDSGVLVKDPASELVDAIELVLNETEATHRKTEQAFHKVSGELSARSMAEQYLRVYNGVVAS,not soluble
17,MQLKGKTAIVTGSSRGLGKAIAWKLGNMGANIVLNGSPASTSLDATAEEFKAAGINVVVAKGDVKNPEDVENMVKTAMDAFGRIDILVNNAGITRDTLMLKMSEKDWDDVLNTNLKSAYLCTKAVSKIMLKQKSGKIINITSIAGIIGNAGQANYAASKAGLIGFTKSIAKEFAAKGIYCNAVAPGIIKTDMTDVLPDKVKEMYLNNIPLKRFGTPEEVANVVGFLASDDSNYITGQVINIDGGLVM,soluble
18,MSLASLPGGASTLQETYQDWTVSCQSQKDTTACVMRQEQSSAQTGQRVLTAELRNVAGGKVDGVLLMPFGLDLAKGASLKIDDTAGPNLTFSTCLPQGCLAPVSFDAKQVAALKSGTNINVTTTALSPSQPVAFKISLKGFGAALDRIQALTKEGHHHHHH,soluble
19,MHHHHHHGKPIPNPLLGLDSTENLYFQGIDPFTMNNRNHDVLSRMISEKAALHGLLNCLIKEFAIPEGYLRYEWPDEMKGIPPGAYFDGADWKGIPMMIGLPDQLQLFVMVDRRDTFGSQHYLSDVYLRQAQGDWQCPDFEPLVARLLAACEHIAGRKNPELYEQILQSQRLVSAIVSHNGRQRADAPLQHYLQSEQGLWFGHPSHPAPKARLWPAHLGQEQWAPEFQARAALHQFEVPVDGLHIGANGLTPQQVLDGFADQQPASPGHAIICMHPVQAQLFMQDARVQQLLRDNVIRDLGQSGRVASPTASIRTWFIDDHDYFIKGSLNVRITNCVRKNAWYELESTVLIDRLFRQLLDQHADTLGGLVAAAEPGVVSWSPAAAGELDSHWFREQTGGILRENFCRRTGAERSIMAGTLFARGVDLQPMIQTFLRTHYGEALDDNALLYWFDDYQTRLLRPVLSLFFNHGVVMEPHLQNSVLVHQQGRPQQVLLRDFEGVKLTDDLGIRYIDDDIHPRVRQSLLYSREQGWNRIMYCLFINHLSETILALSQGRPQLAPLMWRRVQQQLRAIQGELKQPSPELDALIAGHPVACKTNLKVRLAAEADRQASYVRLPSPWGHAVQHGSEVQHDERRHGDVRHEEARHGEVQHG,soluble
